# Data reported in the DeepSol protein solubility set.
# Experiment: soluble on expression in E. coli; label from the status in PepcDB or PDB records
row,Sequence,soluble on expression in E. coli
1,MGSDKIHHHHHHMKMCYNEKRKNMTLRHPGISPTNDSVAKKIFSNPEITWQFIRDMLDLPAKNVTILEGSNIHVLPSLPYSAQDFYTSINVLAELDNGTQVIIEIQVHHQNFFINRLWAYLCSQVNQNLEKIRQREGDTHQSYKHIAPVYAIAIVNSNYFQDDLAFHSFSMREDTTGEALTITNNSQENHLVKMAFLELKKYRETSKDKIRKPWLEFFGNKPFTQQPERAISQAYQLLDYKSWSEEDRKMFSEQRRREEQALLAQDYALEQAEEKGLERGKVEGREEGKLFAFLDMVRQGLLTSEVASQQLGMTVAEFEALL,not soluble
2,MMKGSRRTGNNTATTLNTPVVIHATQLPQHVSTDEVLQFLESFIDEKENIIDIDTNLSSSISQLKRIQRDFKGLPPAQDFSAAPIQV,soluble
3,MRTLFIGDLHLSADRLDITQAFNRFLDTELDDADALYILGDLFEVWVGDDLAAPFALELAHKLKQVSQTLPIFFIHGNRDFMLGKRFAEAAGMQLLPEVTCIELYGVKTVILHGDSLCTLDKAYQRFRKLRSFACARWLYSCLPKKRRQAIANKIRSNSQSSNQQKSYVIMDVEPSAVNALFVKTHTTRMIHGHTHRPAIHIVDNACQRIVVGDWYEQGSVLSVSANGVDLKSLPFETTLEHHHHHH,not soluble
4,AADALVRVDGFERTSSSNTVTDIVPGVVLNLTKAAEGTKVTLGVTADTSGLKGNLTAFAAAYNTANTLLKNSSSYNAETRTASALTGDSLVRGLQQQLRGQVSGSISELKALGLTIDKDGVMSFDGGKFDTAIAADGGAAAEALGKDSKFGSGLTKLLDANVNVNNGTLTLRSDSLNKQIKGFEADLDNLDARMEKLTDRYTAQFTAMETMISKMQGATGSLSSLLAI,not soluble
5,GPGSMEDRNSVASSVFFTGVSLVIEKEKLRQHFESVGHVVSFTIFGPAPGKDFRYGIVGYMDEKTAEEAIRRLDGTTFGERAMRVTAARSTTLHGPLRAGPGGGGSGPADHSTFRKRPREPYPSLNSSRPPYGPGMGRGGGMRAPIARVSFSAQQQQKQEQSQQPTTDKAGRETMQFPRFYTDPILGRDGSLVLDALRGMATEEAYSAVEQLRVLALERPNEAKRLLHNNPALKSAVIMTLQHAGRIPLGSLPRDAYQSRRAAEAEAELAQPLPPQQPTPSQQSALPTPQQTPPQPPAESLKPAKKEARSAAKSGEARGARKRDTATGSASASAAVPSESQTSLVRPSTPMTEAERDEVLELIQSMSEEDVERVLTMSARDFAQVPDPAQRKQLEVLQKRLLVMSRDL,soluble
6,MGSDKIHHHHHHMKRKRIDGMNIEIITATIDMLEEIVAIQTAAFSEREPMTMSLNFTKEEMYDYFLKIIPESINSGLTMAAVDEDKGAIAAVVICFDAFAVFPNMEWTQKEIDGISKTNIFFEELEKPLNTNPAFKPEKCVRLMYVSTDENYLRRGIARKLGESMINRAIDLGYELMIADATNINSAGMFEKLGFWQEKVLPYKLVEKDGLKAFGNVEGECILYSRYLQENCFS,not soluble
7,ADYVLAIDQGTTSSRAIVFDHSGEIYSTGQLEHDQIFPRAGWVEHNPEQIWNNVREVVGLALTRGNLTHEDIAAVGITNQRETAVVWDKTTGKPVYNAIVWQDTRTQKIVDELGGDEGAEKYKSIVGLPLATYFSGPKIKWILDNVEGAREKAEKGDLLFGNTDTWVLWNMTGGTEGGVHVTDVTNASRTMLMDLDTLSWREDIAADMGIPLSMLPDIRSSSEVYGHGRPRGLVPGVPIAGILGDQQAATFGQACFEVGQAKNTYGTGNFLLLNTGTEKVMSKNGLLTTVCYKIGDAPAVYALEGSIAVTGSLVQWLRDNLGMFEDAPDVEWLAGKVQDNGGAYFVPAFSGLFAPYWRPDARGALVGLTRYVNRNHIARAALEATAFQSREVVDAMNADSGVDLTELRVDGGMVANELLMQFQADQLGVDVVRPKVAETTALGAAYAAGIAVGFWKGEQDVIDNWAEDKRWSPSMESGERERLYRNWKKAVTKTMEWVDEDVEQ,soluble
8,MKFVSIISNSRMLFLFLLITAKSDRESCLYIFDENIRGVNITPTFVSTRAKGLFDLFIKKLRSRVALSFFLLKRKIKLEETIVYGADHLSHSLLFLKKCSFFLIEDGTENYHQKSYKRSWKNKLFSIPKFGMYKNVKRIYLTKRENVPDCIKSKVEYINIKDLWFKKTEEEKLEILYLLGIDMKKIQLLIGEPFILFTQPLSEDYILTENEKIELYKSIIDKYDASKLVIKPHPREKTDYSRIFPNVKVFDETYPSEVLDILEVKFSRVITLFSTAAFSYPKEKVDFYGTKIHPKLLAKFGNIEYE,not soluble
9,MLNVGDSVQIAGCSTKKRLLETSSGCDSFDTLIGGALVNSSIVLIDEYRSRCYGSYLIRSFLAEGLHHGHRCFIADPTEDPKEINLIPSRRTSTDMQNQEIPNSLPAENENSMKIAWRYGNVKQVSSSLGPLSNENQYDFTKHVENPNVDVYAEKVFTLKGIYETLCQIVKENEAHTKSGGRGGPKKNLLRVVLKNIDMEICEDYKFLGRFLCCLRSLARSSYMIVYITANSFRVPKPTWRILESAADTHIQLMPFDENEKKMFKHLGTAHGYFHLKSLPRLMSVGTHTPPILDLIFEASSRKGFQIRVMHLPPAFDEPAPGHQNTPSCQNIDF,soluble
10,MACLTDLVNLNLSDTTEKIIAEYIWIGGSGMDLRSKARTLPGPVTDPSKLPKWNYDGSSTGQAPGEDSEVILYPQAIFKDPFRRGNNILVMCDCYTPAGEPIPTNKRYSAAKIFSSPEVAAEEPWYGIEQEYTLLQKDTNWPLGWPIGGFPGPQGPYYCGIGAEKSFGRDIVDAHYKACLYAGINISGINGEVMPGQWEFQVGPSVGISSGDQVWVARYILERITEIAGVVVTFDPKPIPGDWNGAGAHTNYSTESMRKEGGYEVIKAAIEKLKLRHKEHIAAYGEGNERRLTGRHETADINTFSWGVANRGASVRVGRETEQNGKGYFEDRRPASNMDPYVVTSMIAETTIVWKP,soluble
11,GNDIDYSVGGSVSDAVSEVTEYANAKKNDPYGSWYTGRKVGEIWGYRAEGLIQTQEEADAYNAEYDLSYISGKLWEPGDVKYIDLDGNKVIDRGDNRLVDGDMGDQTIIGNTTPRYQYTFNGYISWKGLSLSVMFQGVGKRDWVAGGAYFWGFGPYAQVTVFKEHMDYWRPDNPGAYYPKPYINSAGGVAPYQDKNIQRTDLYLQNAAYCRLKNLTLSYDLPNAWVHKAGLQKVQVFFSGENLLTFTKLKGMFDPEAIFSSNSYTSEGGKNYPMNRVLSLGFIVNL,not soluble
12,MQPWQTDPTRAPVATKIVVAGGFGVGKTTLVTAVSEITPLQTEALMTEASEETDDLTATPGKLTTTVAMDFGRITLDDDLVLYLFGTPGQQRFWFMWDDLVRGAIGAVVLADTRRLKDCWPALDYFESCGLPYVVAVNHFDGSELFEAEDVREALTIPAHIPVMIMDARRRISAIETLLSLVGHALDETPELEHHHHHH,not soluble
13,MGSDKIHHHHHHMKRFTLWNSYVAITESKEFVDWNKTKIIGSFKCPAFSYRSSTQIKADPFLFEYNNAIYLFYEEKYKNGKGYIVCTWTSDLKNWSQPVVVLKEPFHLSFPYVFKINDKIYMLPESNESNELRLYECVDFPYKWKLNKIIFDNGKYVDSSIICKGDIYYLFTTHKTENSFYHELYYCNDLLSDKWIKHPQSPISNNPKFARNGGSVFSHNNNLFRPAQDCSVSYGNNLSIFNVTHLSIDKYEETLVATNFFPKYKFKHGGHHFSHIEYKGQNIIAFDKKSREYAITPLFSSLYALICRLMKITSHK,not soluble
14,MYKAVVFDFDGTVIDTEKHLFDLINTHLKIHQVAPISLEFYKQFIGGEATELHTYLEDAIGFKNKEKIYDQYYQTSVELPVNSTIIQLMQYLKKRHIPMAITTSSYKKNIYPIFKQLGLDTYIDVVVGRENVDSVQPNPEIYLKAVQELNYNPTTCLAIEDSVNGATAAMLAGLDVVVNTNIITKDQDFSTVQCVGQDMEFEDIKNSLFKE,not soluble
15,VKDISMENLKKIFLGEVTNWKELGGKDQKIVILNRAAGSGTRATFEKWVLGDKTAIRAQEQDSSGMVRSIVSDTPGAISYTAFSYVTDEVATLSIDGVQPTDENVMNNKWIIWSYEHMYTRKNP,not soluble
